Source: the DeepSol protein solubility set

Assay: soluble on expression in E. coli; label from the status in PepcDB or PDB records

Soluble on expression in E. coli, soluble:
KPPIPPQVEEEYYTIAEFQTTIPDGISFQAGLKVEVIEKNLSGWWYIQIEDKEGWAPATFIDKYKKTSNASRPNFLAPLPHEVTQLRLGEAAALENNTGSEATGPSRPLPDAPHGVMDSGLPWSKDWKGSKDVLRKASSDMSASAGYEEISDPDMEEKPSLPPRKESIIKSEGELLERERERQRTEQLRGPTPKPPGVILPMMPAKHIPPARDSRRPEPKPDKSRLFQLKNDMGLECGHKVLAKEVKKPNLRPISKSKTDLPEEKPDATPQNPFLKSRPQVRPKPAPSPKTEPPQGEDQVDICNLRSKLRPAKSQDKSLLDGEGPQAVGGQDVAFSRSFLPGEGPGRAQDRTGKQDGLSPKEISCRAPPRPAKTTDPVSKSVPVPLQEAPQQRPVVPPRRPPPPKKTSSSSRPLPEVRGPQCEGHESRAAPTPGRALLVPPKAKPFLSNSLGGQDDTRGKGSLGPWGTGKIGENREKAAAASVPNADGLKDSLYVAVADFEGDKDTSSFQEGTVFEVREKNSSGWWFCQVLSGAPSWEGWIPSNYLRKKP
MSLNTAMAINKPKKVNKVMNYKSCFDIIGPIMIGPSSSHTAGALAIGLAARKLFGGTPEKIVIKYYESFADTHKGHGTDFAIIGGILGLAADDANVTQSIELAEEQGIEIQFLEMSEESPVKHANTACVTLSDATHEIHLTGISVGGGTIEVKYIELDGFNVQLHGPLPILLVINQEEQAMQAFKDTLQKNNIQVNAVSRYVEGNQILFIFDLDSAPISSVKEQLFSLDDTSKIILLEGGSHHHHHH
MAEIEKTVLVGYSASQMFRLVDTVENYPDFLPWCSGASMKLMEDNETAQATVHIDYHHIKHSFTTKNTRHPPELIKMELVEGPFEKLNGYWRFIPLSENACKIEFQLHYTFSHKLLEKLVGPVFYVIANNFVEAFVEQAEKIYGPSILEHHHHHH
MPAQPNPEQRDWLEALNAGDATMGESRLFERDGTWYLHVTATRDVEERSDVSAEERTPIGVDIGEASLATVCHRDGHGSPTAPELWADEGKTVRRLRKTYFTATRRLQTRGSERIVESFGDDIWDQIDDVFHRVTREVVEYAESVENPVLVLEDLTYIRESMDYGEYMNRRLHGWGFAKLHAQIRYKAVEKGIPVETVNPCNTSKECHACGEVGYRPRQATFKCTNDACWMGESQADVNGAINIADRYLSGESHSREHTDGDDSAGDGGRLTAPQDTLADATTQETLGTYAS
MSLRGMRIDAYIAEHARKNPDQLALEDGKKSISYSCLDEDINKVASSLDGFEHCKFAILAESGIQYVKILMAVYRSGNIAIPLPIEMQGRSLERILDTACINNIIATKKQYSRFGDGFFERFGTVIVVSDDTSVETLSRRMILERNDPRLRLVLYTSGTTGTPKGVMLSDKNLVSNARSITGILSIGSKDKAALVISPHHAFGNSIINSHLMAGSSIQIGTMNFIDPVFSLIESGVSIFYGVPSTYRILLKYPERFRKAFQNVRTAASAGGAMDRTVVRSIRELSPDTQILPMYGQTEATARLSYLPAEDVDEFIDTIGKAIPGVTLEVFDTENRPVEPGVTGELVARGDNILLGYLNDEAATEKKIIDGWLHTGDLAQKLRCGYIKLLGRKDDLIKIGDHRVNPREIEKEIEMNNEVSSVFVVPVSHELMGNAISLMVIPNERTEIDTIFSFCRKNLPGYLYPREILFIDHLPLSENGKISNRSIIEEYQHVKASEGHHHHHH
EESPFVGNPGNITGARGLTGTLRCQLQVQGEPPEVHWLRDGQILELADSTQTQVPLGEDEQDDWIVVSQLRITSLQLSDTGQYQCLVFLGHQTFVSQPGYVGLEGLPYFLEEPEDRTVAANTPFNLSCQAQGPPEPVDLLWLQDAVPLATAPGHGPQRSLHVPGLNKTSSFSCEAHNAKGVTTSRTATITVLPQQ
MTMYQTINEWVDYIDKGCSVLHLDFNVFKKELSLDIKVFEDEGEYTHKISFQNVASAYYSADVGDMRLEKIDPEEYNWQVFEMSYHPEGIGNLSNSIIPEYQSNANFLIDMNRMLIAIEAETVRFDDQSFYAYQLNTKLEHHHHHH
AKKIGLFYGTQTGKTESVAEIIRDEFGNDVVTLHDVSQAEVTDLNDYQYLIIGCPTENIGELQSDWEGLYSELDDVDFNGKLVAYFGTGDQIGYADNFQDAIGILEEKISQRGGKTVGYWSTDGYDFNDSKALRNGKFVGLALDEDNQSDLTDDRIKSWVAQLKSEFGL
MSLKMKPPVEKNEYYDVTFEDLTHEGAGVAKVQGFPIFVPNALPEEKAQIKVTRVKKGFAFGRLIELKEESPHRTDAPCPIYKQCGGCQLQHMTYEGQLLFKQKQVKDVLERIGKLDLSKVTVHPTLGMEDPWNYRNKAQVPVGEREGGLVAGFYQQRSHDIIDMSACLIQQSKNDEAVQAVKDICANYGVKAYNEERHKGWLRHIMVRYGVVTGEMMIVFITRTSDFPHKAKIIEDITAQFPHVKSIVQNINPNKTNVIFGNETNVIWGEEYIYDLIGDVKFAISARSFYQVNPEQTKVLYDKALEYAELQGEETVIDAYCGIGTISLFLAKQAKKVYGVEIVPEAIEDAKRNAELNGNTNAEFAVGEAETVIPKWYEEGITADTLVVDPPRKGCDEALLRTIVEMKPKRVVYVSCNPGTLARDLRVLEDGGYVTREVQPVDMFPHTNHVECCVLIKLKEEGHHHHHH
MSLTSVKEFPTIKAVRSFVIGGVGSGGDYHNVEGGHWLIDSPISTPCSRWEEYRKSRTSWGINVLGSFFVEIEASDGTVGYATGFGGPPACWLTHQHFERFLIGADPRRTNHLFEQMYRASMFYGRKGLPIAVISVIDLALWDLLGKIRKEPVYQMIGGATKDRLNFYCTGPEPTAAREMGFWGAKVPLPYCPDEGHVGMKKNIEFLRKHREAVGPDFPLMVDCYMSLNVSYTIELAEKCKDLDINWWEECLSPDDTDGFEQIKRAHPTLKFTTGEHEYSRFGFRKLVEGRNLDIIQPDVMWLGGLTELLRVSAMAAAYDIPVVPHASGPYSYHFVMSQPNTPFQEYLANSPDGKSVLPVFGDLFLDEIIPSKGFLTPKDLDQPGFGLTLNPAARAKMIPGEFWVNPAPLKALTSGAPAEEKKEGAVEAVVNKVQELTTSEGHHHHHH
MAPDLSGTWYVLEGDPGEHLVVEALGERLSGIWTSRELAEAFLAHHPHLGMRVSALESRALKEAYLRALGMLQVEAVMVDYRPGTHRAQVARVKDLLEEVRRA

Soluble on expression in E. coli, not soluble:
MCRHCHFLSAIAPVSGTNKSQPGNKWDMVLLVPFDGSALSKAALTRAMEFADYRDEDITALSVIPDDAAYAREHGWLDADEAFTVEAVADRMREQAESVAPAASFRYEVPEDVSSMASTTTNITRTIREVAHEEEASIVFIGSENAGRVSTPVCSVGSPVSEDPEYDVHIVRHP
MGSDKIHHHHHHMKTSPRSNRLHIALFGKRNSGKSSLINALTNQNAALVSDIAGTTTDPVYQPMEIHGIGPCVFIDTAGFDDEGELGSLRIERTLQAADKADIALMVCCDTELSEEQRWIELLKERNIPYLLVLNKADLLEKPDEVADKLEQQTGQHPLIVSAKEKTGIDSIRQSILHRLPELNEQPDIVGDLANEGDVVLLVMPQDIQAPKGRLILPQVQTLRELLDKKCITLSCTTDQLDNALKALSVPPSLIITDSQVFRTVYEKKPPQSRLTSFSVLFARYKGDIDYYTEGAYIIDQLTENSRVLIAEACTHAPLSEDIGRVKLPRMLRKRIGEKLHIDIVSGNDFPKDLNCYDLIIHCGACMFNRKHVLNRIVKAKAQGVPMTNYGIVIAYINGIPFH
MGSDKIHHHHHHMKTRQEALDYGLSFPNTYQEAPFHDPNWQLIRVKDSKKVFLWTYERNGFINLNVKVSPAWRDFWRDAFPSVIPGWHQNKDNWNTIILDGSIPDDAIKNMISDSYDLVTYNPTRLIYEAVKRIPKGCVATYAQVAELAGNKKMCRAVGNALHKNPNPDEIPCYRVVNAKGELSGAFAFGGADEQANRLRADGIEVIDGRVDLDKYGIRIVDDVIYTKTTVEPLT
IDENSFWIEGYFKETDLAGIAPNDRATVTLLMHDDVALEGKIKSIGFGIAKKDGTTGNDLLPTVNPNFQWIRLAQRIPVKVTLNEMPKDLQLRVGMTASIKIIKH
MENILEVNQIKKYYKIKTGLLQKTQYVKAVDDVSFSIKKGQTFGLVGESGCGKSTLGKVIIRLEDATSGSIIVNGEDITRLQGKKLRKSRQQYQMIFQDPYASLNPMQMVGDIISEPILNYKKLPKEEIKKEVLYLLKCVGLSEDAYYKYAHEFSGGQRQRVGIARALALRPSLIVADEPVSALDVSVQSQVLNLLKDLQEQFNLSYLFIAHDLSVVKHISDVIGVMYLGHIVEIASDKEIYENPKHPYTKALISSIPQIDKHNNNRIILKGELPSPSNPPQGCPFHTRCPIAQDMCKKSMPELKDIGNEHQVACFYVDKVGDLND
MGSDKIHHHHHHMASKNFVLDTNVLIENPRCIAALRNGEENRIHVPWTVLAELDGLQRDPRIGHVVGQAINALVGDEAVTFLPPLADDVAPSPGTIGDDRILGEIASSALESPILITNDRILQLKARVRGIPVEGYRDSVPFQSESQRYTGFVMDGEDPVPNCFRWENGQPVFHGPDGPRAVTWQHEVWKVAPRSVHQNLAFELMLHPGIDIVSIQSEAGYGKTFLALAAALHLVFERKDTPYRKIYLVKPVVEIGARMGFLPGDIEEKMHPYIRYVQDLLLKLHDLRPANRVFQSVEAGNMKLNPKRFEIQPIAYVRGMNLENAVVIIDEMQNLSRNEARALLTRMGEGVKCFCLGDTRQVDNQYLNESNNGLNWVVKKLKGFRNYAHIVLKGERSRGPITDIVLRSRL
MAKEKTVYVCSNCGQESPKWVGKCPSCGEWNTYVEEIVRKETTNRRPVSGIETQKAKPVILSEIEADDEPRINMHDDELNRVLGGGLVPGSLVLIGGEPGIGKSTLVMQTVLRMPDKKILYVSGEESARQLKLRADRLSEVSSDCLIVCETSLEQIYVHIKNTSPDLVIIDSIQTISTENIESSPGSIAQVRECSASILRFAKETHTPVLLIGHINKEGSIAGPKVLEHIVDTVLQFEGDQHYMYRILRSIKNRFGSTAELGIYEMRQDGLRQVSNPSELLLSQDHEGMSGVAIASAIEGVRPFLIETQALVSSAVYGNPQRSATGFDIRRMNMLLAVLEKRVGFKLAQKDVFLNIAGGLKVNDPAIDLAVISAILSSNMDAAVEPEVCMAGEIGLSGEIRPVNRIEQRIGEAEKLGFKRFLLPKYNLQGIDTQKLKIELVPVRKVEEAFRALFG
MGSDKIHHHHHHMIPDKSVEILLGELSRDIAQRTPGTGDFPTAVEGLELFRRNEPAPPVSCLVPPSIVLVADGAKIMWVGGEPYEYNAEKFLITSLDLPASSEILQASTSQPCVGVAYKLDQRVLMELIAQGSLPPVKKRDAGTSVGIGTITDALLEPFCRLLSLLDEPEAIPVLGPLIQREIHYRLLMSDQSDHLRQIAAVDGHGYRIGKAIDWLKTNIASPLRVEELASRVQMSTPSFHHHFRQLAGMSPLRYQKWLRLNEARRLMLNEHYDVTTAAYAVGYESLSHFSREYTRMFGESPKRDITELRKSAGKL
MDFSCGAASIATLLNNFYGRHYSEAEILDKMDKTQMRASFDDMQRIMPELGFEAQGYALPFEQLVQLKIPVIVYLKYRKNNHFSVLNGINGETVLLADPSLGHVSMSKSQFLSAWKTRDGEMEGKILAIVPKNTDFVRNQMFFNKNPVRQTRFTVEQIQMRQKR
MEVLVIAPRICVNVIRTLPIGLPVGVEKRLRAFDPDVIHLASPYAFAARAAFIAQKMAVPCVAVYQTDVAAYQQHYHLTWLKNLEHHHHHH
MLADPAQPEHVFIVEDSRGATELKLYKSHYTIGKADSCDIRLHSIYASRQHATLVRFLTENGEVRYRLIDGDPETSRRSANGTYVNNRSITECDLKHYDQILFGADVKATYFYLSPQFRSLEHHHHHH
